Numbering of substitutions follows the chain as printed. Names and notes keep the numbering of the source. Blank lines part the entries; values can stand above or below the binder they belong to.
How the values were obtained:
[1] = biological target: T1, human OX40 (TNFRSF4, CD134) on cells (human, UniProt P43489 29-277); assay: cell-based or functional assay
T1 sequence: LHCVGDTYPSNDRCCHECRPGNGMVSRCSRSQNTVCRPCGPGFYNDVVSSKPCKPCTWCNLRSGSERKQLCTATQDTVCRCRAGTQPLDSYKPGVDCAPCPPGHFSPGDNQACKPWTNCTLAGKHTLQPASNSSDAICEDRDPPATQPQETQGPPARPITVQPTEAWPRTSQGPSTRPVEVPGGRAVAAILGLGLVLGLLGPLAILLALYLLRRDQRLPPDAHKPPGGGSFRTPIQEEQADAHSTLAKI

[2] = biological target: T1, human OX40 (TNFRSF4, CD134) on cells; assay: cell-based or functional assay; remark: listed apart in the source
[3] = biological target: T2, Human FcRn protein (Acro Biosystems, catalog NO: FCN-H52W7) (human, UniProt P55899 24-297; P61769 21-119); assay: SPR Biacore 8K+, antibody immobilised, FcRn analyte, pH 6.0; pH 6.0
T2 construct: also called huFcRn

[4] = biological target: T1, human OX40 (TNFRSF4, CD134) on cells; assay: cell-based or functional assay; remark: listed apart in the source
[5] = biological target: T1, human OX40 (TNFRSF4, CD134) on cells; assay: flow cytometry on Jurkat-NF-κB-OX40 cells, detection with PE anti-human IgG Fc, occupancy in % of the saturating dose; no OX40L; time point (0 h or 5 h) not stated on the sheet
[6] = biological target: T1, human OX40 (TNFRSF4, CD134) on cells; assay: cell-based or functional assay; remark: listed apart in the source
[7] = biological target: T1, human OX40 (TNFRSF4, CD134) on cells; assay: cell-based or functional assay; remark: listed apart in the source
[8] = biological target: T3, Human CD16b (NA2 allotype), Sino Biological 11046-H08H (human, UniProt O75015 17-200); assay: SPR Biacore 8K+, receptor captured by anti-His, antibody as analyte
T3 construct: also called FcγRIIIb
T3 sequence (O75015 17-200 N65S limits assumed): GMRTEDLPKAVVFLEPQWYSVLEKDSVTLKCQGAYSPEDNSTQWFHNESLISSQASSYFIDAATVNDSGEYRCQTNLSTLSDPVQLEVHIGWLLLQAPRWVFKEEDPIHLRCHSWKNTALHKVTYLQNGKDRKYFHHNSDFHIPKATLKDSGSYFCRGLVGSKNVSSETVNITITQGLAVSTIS

[9] = biological target: Human CD64 (FcγRI), Sino Biological 10256-H08H (human, UniProt P12314 16-288); assay: as above
Human CD64 (FcγRI), Sino Biological 10256-H08H, sequence (P12314 16-288 limits assumed): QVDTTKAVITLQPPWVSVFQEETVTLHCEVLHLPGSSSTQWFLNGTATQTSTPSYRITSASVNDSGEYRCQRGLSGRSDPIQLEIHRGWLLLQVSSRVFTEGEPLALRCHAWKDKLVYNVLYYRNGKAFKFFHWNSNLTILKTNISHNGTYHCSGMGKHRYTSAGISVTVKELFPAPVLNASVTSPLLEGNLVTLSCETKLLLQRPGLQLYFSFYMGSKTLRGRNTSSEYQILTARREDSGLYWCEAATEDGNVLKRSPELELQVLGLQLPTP

[10] = biological target: T4, Human CD32b, Sino Biological 10259-H08H (human, UniProt P31994 43-217); assay: as above
T4 construct: also called FcγRIIb
T4 sequence (looked up): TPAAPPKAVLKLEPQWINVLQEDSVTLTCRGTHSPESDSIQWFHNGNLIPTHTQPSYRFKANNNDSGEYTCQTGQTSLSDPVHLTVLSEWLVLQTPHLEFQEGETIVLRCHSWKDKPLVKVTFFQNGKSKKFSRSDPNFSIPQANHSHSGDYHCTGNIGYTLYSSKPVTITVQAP

[11] = biological target: T5, Human CD16a (F176V), Sino Biological 10389-H08H1 (human, UniProt P08637 17-208); assay: as above
T5 construct: also called FcγRIIIa176V
T5 sequence (P08637 17-208 F176V limits assumed): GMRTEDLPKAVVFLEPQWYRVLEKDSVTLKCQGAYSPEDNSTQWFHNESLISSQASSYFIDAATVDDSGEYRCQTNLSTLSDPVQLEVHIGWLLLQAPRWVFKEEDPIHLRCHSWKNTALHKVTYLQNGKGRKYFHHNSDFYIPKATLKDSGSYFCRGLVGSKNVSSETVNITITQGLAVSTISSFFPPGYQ

[12] = biological target: T6, Human CD32a (167 His), Sino Biological 10374-H08H1 (human, UniProt P12318 34-218); assay: as above
T6 construct: also called FcγRIIa167H
T6 sequence (looked up): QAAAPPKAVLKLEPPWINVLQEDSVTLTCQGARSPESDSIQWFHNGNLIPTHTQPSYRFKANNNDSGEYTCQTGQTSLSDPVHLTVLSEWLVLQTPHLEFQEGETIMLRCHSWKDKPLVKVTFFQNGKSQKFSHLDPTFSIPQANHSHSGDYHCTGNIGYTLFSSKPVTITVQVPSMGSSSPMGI

[13] = biological target: T7, Human CD16a (176F), Sino Biological 10389-H08H (human, UniProt P08637 17-208); assay: as above
T7 construct: also called FcγRIIIa176F
T7 sequence (P08637 17-208 limits assumed): as the sequence (P08637 17-208 F176V limits assumed) above, with V160F counted along it

[14] = biological target: T8, Human CD32a (167 Arg), Sino Biological 10374-H08H (human, UniProt P12318 34-218); assay: as above
T8 construct: also called FcγRIIa167R
T8 sequence (looked up): T6 sequence (looked up) with H134R

[15] = biological target: T9, Human OX40 (Acro Biosystems, catalog NO: OXO-H5224) protein (human, UniProt P43489 29-216); assay: SPR Biacore 8K+, single cycle kinetics, antibody captured by anti-human Fc, OX40 analyte, pH 7.4, 25 °C
T9 construct: Bought protein; also called recombinant human OX40 receptor; recombinant human OX40 protein
T9 sequence: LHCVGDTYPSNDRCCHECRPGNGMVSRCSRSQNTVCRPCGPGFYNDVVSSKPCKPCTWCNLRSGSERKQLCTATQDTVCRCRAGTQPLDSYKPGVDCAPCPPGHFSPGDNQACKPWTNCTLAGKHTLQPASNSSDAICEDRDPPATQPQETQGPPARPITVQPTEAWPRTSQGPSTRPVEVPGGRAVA

EC50, inhibition of IFNγ release [1]: 0.0146 µM
EC50, inhibition of IL-2 release [1]: 0.00236 µM
EC50, inhibition of IL-4 release [1]: 0.00283 µM
EC50, inhibition of IL-5 release [1]: 0.0213 µM
EC50, inhibition of IL-8 release [1]: 0.00919 µM
EC50, inhibition of IL-10 release [1]: 0.028 µM
EC50, inhibition of IL-13 release [1]: 0.0062 µM
EC50, inhibition of IL-17a release [1]: 0.0244 µM
EC50, inhibition of IL-21 release [1]: 0.00256 µM
EC50, inhibition of IL-22 release [1]: 0.00919 µM
EC50, inhibition of IL-31 release [1]: 0.00251 µM
EC50, inhibition of TNF-α release [1]: 0.0041 µM
Fold diff to GBR830, IFNγ [1]: 4.6 fold
Fold diff to GBR830, IL-2 [1]: 3.4 fold
Fold diff to GBR830, IL-4 [1]: 15.8 fold
Fold diff to GBR830, IL-5 [1]: 3 fold
Fold diff to GBR830, IL-8 [1]: 6.3 fold
Fold diff to GBR830, IL-10 [1]: 2.4 fold
Fold diff to GBR830, IL-13 [1]: 11.2 fold
Fold diff to GBR830, IL-21 [1]: 18.5 fold
Fold diff to GBR830, IL-31 [1]: 11.9 fold
Fold diff to GBR830, TNF-α [1]: 10.6 fold
Fold diff to MAB10, maximum ADCC, activated T cells [2]: 1.31 fold
Kd [3]: 0.102 µM
Fold diff to MAB10, maximum ADCC, regulatory T cells [4]: 2.27 fold
EC50 (read off the curve) [5]: ~0.0002 µM
ADCC EC50, activated T cells (LDH release) [6]: 0.00027 µM
Fold diff to MAB10, ADCC EC50, activated T cells [6]: 0.37 fold
ADCC EC50, regulatory T cells (LDH release) [7]: 0.00028 µM
Fold diff to MAB10, ADCC EC50, regulatory T cells [7]: 8.25 fold
Kd [8]: 3.63 µM
Kd [9]: 0.0054 µM
Kd [10]: 11.6 µM
Kd [11]: 0.297 µM
Kd [12]: 4.03 µM
Kd [13]: 0.334 µM
Kd [14]: 6.14 µM
Kd [15]: 0.0068 µM
koff [15]: 0.0016 s⁻¹
kon [15]: 230000 M⁻¹ s⁻¹
B1: MAB1 IgG1 (antibody)
heavy: not shown
light: EIVLTQSPATLSLSPGERATLSCRASSSVSYMHWYQQKPGQAPRPWIYATSNRATGIPARFSGSGSGTDYTLTISSLEPEDFAVYYCQQFGAWPWTFGQGTKVEIKRTVAAPSVFIFPPSDEQLKSGTASVVCLLNNFYPREAKVQWKVDNALQSGNSQESVTEQDSKDSTYSLSSTLTLSKADYEKHKVYACEVTHQGLSSPVTKSFNRGEC
notes: Human IgG1, kappa
Maximum killing (%), ADCC, activated T cells [2]: 45.6%
Maximum killing (%), ADCC, regulatory T cells [4]: 61.9%

EC50, inhibition of IFNγ release [1]: 0.0118 µM
EC50, inhibition of IL-2 release [1]: 0.00263 µM
EC50, inhibition of IL-4 release [1]: 0.00288 µM
EC50, inhibition of IL-5 release [1]: 0.0164 µM
EC50, inhibition of IL-8 release [1]: 0.00955 µM
EC50, inhibition of IL-10 release [1]: 0.0341 µM
EC50, inhibition of IL-13 release [1]: 0.0053 µM
EC50, inhibition of IL-17a release [1]: 0.0235 µM
EC50, inhibition of IL-21 release [1]: 0.00275 µM
EC50, inhibition of IL-22 release [1]: 0.00703 µM
EC50, inhibition of IL-31 release [1]: 0.002 µM
EC50, inhibition of TNF-α release [1]: 0.0042 µM
Fold diff to GBR830, IFNγ [1]: 5.7 fold
Fold diff to GBR830, IL-2 [1]: 3 fold
Fold diff to GBR830, IL-4 [1]: 15.5 fold
Fold diff to GBR830, IL-5 [1]: 3.9 fold
Fold diff to GBR830, IL-8 [1]: 6.1 fold
Fold diff to GBR830, IL-10 [1]: 2 fold
Fold diff to GBR830, IL-13 [1]: 13.1 fold
Fold diff to GBR830, IL-21 [1]: 17.2 fold
Fold diff to GBR830, IL-31 [1]: 14.9 fold
Fold diff to GBR830, TNF-α [1]: 10.3 fold
Kd [3]: 0.0115 µM
EC50 (read off the curve) [5]: ~0.0003 µM
ADCC EC50, activated T cells (LDH release) [6]: 0.0001 µM
ADCC EC50, regulatory T cells (LDH release) [7]: 0.00231 µM
Kd [8]: 15.6 µM
Kd [9]: 0.0087 µM
Kd [11]: 0.816 µM
Kd [12]: 12.7 µM
Kd [13]: 0.992 µM
Kd [15]: 0.0072 µM
koff [15]: 0.0016 s⁻¹
kon [15]: 230000 M⁻¹ s⁻¹
B2: MAB10 (antibody, human IgG1, kappa)
heavy: QVTLKESGPALVKPTQTLTLTCSFSGFSLSTSGMGVGWIRQPPGKALEWIAHIWWDDDKYYNTALKTRLTISKDTSKNQVVLTMTNMDPVDTATYYCARIDWDGFAYWGQGTLVTVSSASTKGPSVFPLAPSSKSTSGGTAALGCLVKDYFPEPVTVSWNSGALTSGVHTFPAVLQSSGLYSLSSVVTVPSSSLGTQTYICNVNHKPSNTKVDKKVEPKSCDKTHTCPPCPAPELLGGPSVFLFPPKPKDTLYITREPEVTCVVVDVSHEDPEVKFNWYVDGVEVHNAKTKPREEQYNSTYRVVSVLTVLHQDWLNGKEYKCKVSNKALPAPIEKTISKAKGQPREPQVYTLPPSRDELTKNQVSLTCLVKGFYPSDIAVEWESNGQPENNYKTTPPVLDSDGSFFLYSKLTVDKSRWQQGNVFSCSVMHEALHNHYTQKSLSLSPGK
light: B1 light
notes: MAB1 with M252Y, S254T and T256E (EU numbering) in the IgG1 Fc; also called MAB1 Heavy Chain + YTE
Maximum killing (%), ADCC, activated T cells [2]: 34.9%
Maximum killing (%), ADCC, regulatory T cells [4]: 27.3%
binding result [10]: no binding (tested: 5,000 nM highest antibody concentration)
binding result [14]: no binding (tested: 5,000 nM highest antibody concentration)

EC50, inhibition of IFNγ release [1]: 0.0667 µM
EC50, inhibition of IL-2 release [1]: 0.00792 µM
EC50, inhibition of IL-4 release [1]: 0.0448 µM
EC50, inhibition of IL-5 release [1]: 0.0636 µM
EC50, inhibition of IL-8 release [1]: 0.0583 µM
EC50, inhibition of IL-10 release [1]: 0.0668 µM
EC50, inhibition of IL-13 release [1]: 0.0696 µM
EC50, inhibition of IL-21 release [1]: 0.0473 µM
EC50, inhibition of IL-31 release [1]: 0.0299 µM
EC50, inhibition of TNF-α release [1]: 0.0433 µM
Fold diff to MAB10, maximum ADCC, activated T cells [2]: 1.14 fold
Kd [3]: 0.112 µM
Fold diff to MAB10, maximum ADCC, regulatory T cells [4]: 1.61 fold
EC50 (read off the curve) [5]: ~0.0004 µM
ADCC EC50, activated T cells (LDH release) [6]: 0.00013 µM
Fold diff to MAB10, ADCC EC50, activated T cells [6]: 0.77 fold
ADCC EC50, regulatory T cells (LDH release) [7]: 0.00225 µM
Fold diff to MAB10, ADCC EC50, regulatory T cells [7]: 1.03 fold
Kd [8]: 3.22 µM
Kd [9]: 0.0062 µM
Kd [10]: 7.26 µM
Kd [11]: 0.33 µM
Kd [12]: 3.41 µM
Kd [13]: 0.365 µM
Kd [14]: 4.69 µM
Kd [15]: 0.0593 µM
koff [15]: 0.0086 s⁻¹
kon [15]: 150000 M⁻¹ s⁻¹
B3: GBR 830 (telazorlimab) (antibody, human IgG1, kappa)
heavy: not shown
light: B1 light with F90W, G91S, A92S, W93N
notes: IgG1; also called Antibody 830; ISB830
Maximum killing (%), ADCC, activated T cells [2]: 39.6%
Maximum killing (%), ADCC, regulatory T cells [4]: 44.1%

Source: patent publication US20250353921A1 (ASTRIA THERAPEUTICS, published 2025)
